Data reported in article doi:10.1101/2023.10.09.561517 (bioRxiv, 2023).
Values joined by “and” are separate entries in the source; they are usually repeats but may differ in a detail not shown here. Equal values may be shown once. One block for each molecule: values may come before it.

Experiments:
CaMKIIα hub domain = test: mass photometry
[1] = target: CaMKIIβ full-length hub domain (residues 534-666) (human); test: mass photometry
[2] = target: CaMKIIβ full-length hub domain (residues 534-666) (human); test: mass photometry; remark: listed apart in the source
[3] = target: CaMKIIβ full-length hub domain (residues 534-666) (human); test: crystal structure
[4] = target: CaMKIIβ full-length hub domain (residues 534-666) (human); test: crystal structure; remark: listed apart in the source
SEC-MALS = target: the molecule itself; test: SEC-MALS

stoichiometry N (CaMKIIα hub domain): 16
Molecule: CaMKIIα hub domain (domain or fragment)

stoichiometry N [1]: 14 and 16
stoichiometry N [2]: 12 and 14 and 16
stoichiometry N [3]: 14
stoichiometry N [4]: 16
Molecule: CaMKIIβ full-length hub domain (residues 534-666) (domain or fragment)

B1: CaMKIIβ hub dimer variant (F585A + L622M) (domain or fragment, human, UniProt Q13554 534-666, looked up)
chain: RKQEIIKTTEQLIEAVNNGDFEAYAKICDPGLTSFEPEALGNLVEGMDFHRAYFENLLAKNSKPIHTTILNPHVHVIGEDAACIAYIRMTQYIDGQGRPRTSQSEETRVWHRRDGKWQNVHFHCSGAPVAPLQ
stoichiometry N (SEC-MALS): 2
